Measurements published in patent US20110300156A1 (Genmab, published 2011).

B1: anti-TF HuMab 101 (antibody, V domains shown)
VH: EVQLLESGGGLVQPGGSLRLSCAASGFTFSNYAMSWVRQAPAKGLDWVSGISGSGVTTYYADSVKGRFTISRDNSKDTLYLQMNSLRAEDTAVYFCAKTPWGYYFDYWGQGILVAVSS
VL: DIQMTQSPSSLSASVGDRVTITCRASQGISSWLAWYQQKPEKAPKSLIYAASSLQSGVPSRFSGSGSGTDFTLTISSLQPEDFATYYCQQYNSYPLYTFGQGTKLEIK
notes: Human monoclonal antibody from HuMab mice
B2: anti-TF HuMab 098 (antibody, V domains shown)
VH: QVQLVQSGAEVRKPGSSVKVSCKASGGSFNNYPIFWVRQAPGQGFEWMGRIIPILGITAYAQKFQGRVTITADKSTSTAYMELNSLRSEDTAVYYCAGGDDLDAFDIWGQGTMVSVSS
VL: DIQMTQSPSSLSASVGDRVTITCRASQGISSWLAWYQQKPEKAPKSLIYAASSLQSGVPSRFSGSGSGTDFTLTISSLQPEDFATYYCQQYNSYPYTFGQGTKLEIK
notes: Human monoclonal antibody from HuMab mice; also called HuMab-TF-098; HuMab-TF-98
B3: anti-TF HuMab 111 (antibody, V domains shown)
VH: QVQLVESGGGVVQPGRSLRLSCAGSGFTFNRYAMYWVRQAPGKGLDWVAVISNDGINKYYADSVKGRFTISRDNSKNTLYLQMNSLRAEDTAVYYCARDHTMVRGAFDYWGQGTLVTVSS
VL: EIVLTQSPATLSLSPGERATLSCRASQSVSSYLAWYQQKPGQAPRLLIYDASNRATGIPARFSGSGSGTDFTLTISSLEPEDFAVYYCQQRSNWPLTFGGGTKVEIK
notes: as for B1
B4: anti-TF HuMab 114 (antibody, V domains shown)
VH: QVQLVESGGGVVQPGRSLRLSCVASGFTVSNDGMHWVRQAPGKGLEWVALIWYDGVNKNYADSVKGRFTISRDKSKNTLYLQMNSLRAEDTAVYYCARRPGTFYGLDVWGQGTTVTVSS
VL: not shown
notes: as for B1

Assays:
[1] = biological target: T1, human tissue factor (TF), membrane-bound on cells (human, UniProt P13726 33-295); assay: cell-based or functional assay
[2] = biological target: T1, human tissue factor (TF), …; assay: FACS, Bx-PC3 cells
Method: (§1) Cells were resuspended in PBS (2×10⁶ cells/ml), put in 96-well V-bottom plates (50 μl/well). 50 μl of serially diluted HuMab in FACS buffer (PBS supplemented with 0.1% BSA and 0.02% Na-azide) was added to the cells and incubated for 30 minutes on ice. After washing three times with FACS buffer, 50 μl of phycoerythrin (PE)-conjugated goat anti-human IgGFc (Jackson ImmunoResearch), diluted 1:100 in FACS buffer, was added. After 30 minutes on ice (in the dark), cells were washed three times, and specific binding of the HuMabs was detected by flow cytometry on a FACSCalibur (BD Biosciences). HuMab-KLH was used as a negative control. Mouse anti-TF followed by PE-conjugated anti-mouse IgGFc was used as positive control. Binding curves were analyzed using non-linear regression (sigmoidal dose-response with variable slope) using GraphPad Prism V4.03 software (GraphPad Software, San Diego, Calif., USA).

[3] = biological target: T1, human tissue factor (TF), …; assay: cell-based or functional assay; remark: listed apart in the source
[4] = biological target: T1, human tissue factor (TF), …; assay: FACS, A431 cells
Method: as §1

[5] = biological target: T2, murine tissue factor (TF) on transfected HEK293F cells (murine, UniProt P20352 29-294); assay: FACS on transfected HEK293F cells, 30 µg/mL antibody [panel L]
T2 construct: whole, on cells; also called murine TF; TFmm
T2 sequence (looked up): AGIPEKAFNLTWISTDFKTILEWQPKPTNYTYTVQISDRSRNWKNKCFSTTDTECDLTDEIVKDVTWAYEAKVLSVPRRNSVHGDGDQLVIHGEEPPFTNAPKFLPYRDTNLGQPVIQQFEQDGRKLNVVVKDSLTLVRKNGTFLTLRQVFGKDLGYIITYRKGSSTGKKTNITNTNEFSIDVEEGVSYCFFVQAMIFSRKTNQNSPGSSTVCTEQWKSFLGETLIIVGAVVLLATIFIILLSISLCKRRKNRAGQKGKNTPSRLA

[6] = biological target: T1, human tissue factor (TF), …; assay: FACS, MDA-MB-231 cells
Method: as §1

[7] = biological target: T1, human tissue factor (TF), …; assay: cell-based or functional assay; remark: listed apart in the source
[8] = biological target: T3, TFECDHis (extracellular domain of tissue factor, amino acid 1-251, with C-terminal His tag) (human, UniProt P13726 33-251); assay: ELISA, coated TFECDHis, mean of 3
T3 construct: range 1-251; The stated range 1-251 starts at residue 1 of NP-001984; also called extracellular domain of TF
Method: The specificity of the obtained anti-TF HuMabs was evaluated by ELISA. ELISA plates (Microlon; Greiner Bio-One) were coated overnight at +4° C. with 0.5 μg/mL of TFECDHis in PBS, pH 7.4. Coated ELISA plates were emptied and blocked for one hour at room temperature with 2% (v/v) chicken serum (Gibco, Paisley, Scotland) in PBS and washed with PBS containing 0.05% Tween 20 (PBST). Subsequently, HuMabs, serially diluted in PBSTC (PBS supplemented with 2% (v/v) chicken serum and 0.05% (v/v) Tween-20), were incubated for 1 hr at RT under shaking conditions (300 rpm). Bound HuMabs were detected using HRP-conjugated goat-anti-human IgG antibodies (Jackson ImmunoResearch) diluted 1:5,000 in PBSTC, which were incubated for 1 hr at RT under shaking conditions (300 rpm). […] HuMab-KLH (a human monoclonal antibody against KLH (keyhole limpet haemocyanin)), was used as a negative control. Mouse anti-human TF (ERL) was used as positive control (HRP labeled anti-mouse IgG as conjugate). Binding curves were analyzed using non-linear regression (sigmoidal dose-response with variable slope) using GraphPad Prism V4.03 software.

[9] = biological target: T1, human tissue factor (TF), …; assay: FACS, Bx-PC3 cells, 30 µg/mL
Method: as §1

[10] = biological target: T1, human tissue factor (TF), …; assay: FACS, TF transfected CHO cells (S1015-TF), 7.5 µg/mL
Method: as §1

TF (Innovin) [11] = biological target: T4, TF (Innovin) (UniProt P13726 33-295, limits assumed); assay: cell-based or functional assay
[12] = biological target: T1, human tissue factor (TF), …; assay: FACS, TF transfected CHO cells (S1015-TF)
Method: as §1

[13] = biological target: T1, human tissue factor (TF), …; assay: FACS, A431 cells, 30 µg/mL
Method: as §1

[14] = biological target: T1, human tissue factor (TF), …; assay: FACS, MDA-MB-231 cells, 30 µg/mL
Method: as §1

[15] = biological target: T1, human tissue factor (TF), …; assay: FACS on MDA-MB-231 cells (~900.000 TF molecules/cell) [panel MDA-MB-231 cells]
Method: as §1
(§2) Binding of anti-TF HuMabs to membrane-bound TF on cell lines expressing different levels of TF was determined by FACS analysis, essentially as described supra. Mouse anti-TF antibody followed by PE-conjugated anti-mouse IgGFc was used as a positive control. Fluorescence was measured on a FACSCantoII. Binding curves were analyzed essentially as described supra, using GraphPad Prism 5 software. The amount of TF molecules on cell lines was determined by Qifi kit (Dako, Glostrup, Denmark), according to the manufacturer's instructions.

[16] = biological target: T2, murine tissue factor (TF) on …; assay: FACS on transfected HEK293F cells, 30 µg/mL antibody [panel K]
[17] = biological target: T3, TFECDHis (extracellular domain of …); assay: SPR avidity format: TFECDHis immobilized, bivalent HuMab as analyte (printed as avidity nM)
Method: Antibody binding to TF was analyzed by surface plasmon resonance in a BIAcore 3000 (GE Healthcare). TFECDHis was used for the analysis. HuMab antibodies (500 resonance units) were immobilized on the CM-5 sensor chip according to the procedure recommended by the manufacturer. Briefly, after surface activation by EDC and NHS HuMab antibody was injected over the activated CM-5 surface in 10 mM sodium-acetate, pH ranging from 4.0 to 5.5 at 5 μl/min. followed by 1 M Ethanolamine for deactivation. Concentration series of TFECDHis in HBS-EP buffer were injected over the immobilized antibodies at a flow rate of 30 μl/min for 180 sec. Regeneration of the HuMab surface was performed by injection of 10 mM Glycine-HCl pH 2.0 or 10 mM sodium acetate pH 3.0. Kinetic analysis was performed using double reference subtraction and model 1:1 (langmuir) binding analysis.
TF (TFECDHis) binding to TF-specific HuMabs was determined essentially as described above, with TFECDHis being immobilized on the CM-5 sensor chip (300 resonance units), and concentration series of Humab antibodies used for kinetic analysis. Kinetic analysis was performed using double reference subtraction and model 1:1 (langmuir) binding analysis.

TF (Innovin) [18] = biological target: T4, TF (Innovin); assay: cell-based or functional assay; remark: listed apart in the source
[19] = biological target: T3, TFECDHis (extracellular domain of …); assay: competition ELISA, inhibition of FVIIa (100 nM) binding to coated TFECDHis
Method: ELISA plates were coated overnight with TFECDHis (0.5 μg/mL, 100 μL per well). Plates were emptied, blocked with PBS containing 2% (v/v) chicken serum (1 hour, RT), and emptied again. […] Plates were washed and incubated with swine-anti-rabbit IgG-HRP antibody (1:2,500; DAKO). After washing, the immune complexes were visualized using ABTS as a substrate.

[20] = biological target: T1, human tissue factor (TF), …; assay: FACS on AsPC-1 cells (~175.000 TF molecules/cell) [panel AsPC-1 cells]
Method: as §1, §2

[21] = biological target: T2, murine tissue factor (TF) on …; assay: FACS on transfected HEK293F cells, 30 µg/mL antibody [panel N]
[22] = biological target: T2, murine tissue factor (TF) on …; assay: FACS on transfected HEK293F cells, 30 µg/mL antibody [panel O]

Binder | % max inhibition of FVIIa induced ERK phosphorylation (A431) [1] [%] | IC50, inhibition of FVIIa induced ERK phosphorylation (A431) [1] [nM] | EC50 [2] [nM] | IC50, inhibition of FVIIa induced IL-8 release (MDA-MB-231) [3] [nM] | max inhibition of FVIIa induced IL-8 release (MDA-MB-231) [3] [%] | EC50 [4] [nM] | EC50 [6] [nM] | EC50 of ADCC, A431 cells [7] [nM] | EC50 of ADCC, Bx-PC3 cells [7] [nM] | EC50 of ADCC, MDA-MB-231 cells [7] [nM] | Max MFI [9] | Max MFI [10] | EC50 [12] [nM] | Max MFI [13] | Max MFI [14] | EC50 (read off the curve) [15] [mg/L] | Kd [17] [nM] | % max inhibition of FXa generation (TF (Innovin) [18]) [%] | IC50, inhibition of FXa generation (TF (Innovin) [18]) [nM] | max inhibition [19] [%] | further results
B1 | 57 | 1.05 | 2.25 | 22.7 | 74.9 | 3.16 | 0.85 | 0.01 | 0.09 | 0.1 | 1220 | 5860 | 1.77 | 2930 | 2070 |  |  |  |  |  | binding result [5]: no binding (tested: 30 µg/mL); EC50 [8]: 0.28 nM; IC50, inhibition of blood coagulation (TF induced clotting time) (TF (Innovin) [11]): 0.7 nM
B2 | 64 | 1.89 | 1.38 | 9.3 | 59 | 1.4 | 0.99 | 0.07 | 0.02 | 0.15 | 1150 | 5230 | 0.96 | 2760 | 1960 | ~0.05 | 4.85 | 14 | 0.43 | 85 | binding result [16]: no binding (tested: 30 µg/mL); IC50 [19]: 0.8 nM
B3 | 52 | > 66.6 | 1.83 | > 200 | 40.1 | 2.88 | 1.03 | 1.56 |  | 0.84 | 1130 | 5350 | 0.55 | 3040 | 1770 | ~0.06 | 0.11 | 7 | 0.07 | 79 | EC50 (read off the curve) [20]: ~0.1 mg/L; binding result [21]: no binding (tested: 30 µg/mL)
B4 |  |  |  |  |  |  |  |  |  |  |  |  |  |  |  |  |  |  |  | 90 | binding result [22]: no binding (tested: 30 µg/mL)
